Laboratory results from article PMC4326527.

Target: UAF1-mRFP (UniProt Q8TAF3)
Test: nuclear relocation assay
Details: 293T cells co-transfected with UAF1-mRFP; at least 100 cells per slide; three independent experiments; parent: est. 10; read off a plot

Sequence of UniProt Q8TAF3 (Q8TAF3 whole entry): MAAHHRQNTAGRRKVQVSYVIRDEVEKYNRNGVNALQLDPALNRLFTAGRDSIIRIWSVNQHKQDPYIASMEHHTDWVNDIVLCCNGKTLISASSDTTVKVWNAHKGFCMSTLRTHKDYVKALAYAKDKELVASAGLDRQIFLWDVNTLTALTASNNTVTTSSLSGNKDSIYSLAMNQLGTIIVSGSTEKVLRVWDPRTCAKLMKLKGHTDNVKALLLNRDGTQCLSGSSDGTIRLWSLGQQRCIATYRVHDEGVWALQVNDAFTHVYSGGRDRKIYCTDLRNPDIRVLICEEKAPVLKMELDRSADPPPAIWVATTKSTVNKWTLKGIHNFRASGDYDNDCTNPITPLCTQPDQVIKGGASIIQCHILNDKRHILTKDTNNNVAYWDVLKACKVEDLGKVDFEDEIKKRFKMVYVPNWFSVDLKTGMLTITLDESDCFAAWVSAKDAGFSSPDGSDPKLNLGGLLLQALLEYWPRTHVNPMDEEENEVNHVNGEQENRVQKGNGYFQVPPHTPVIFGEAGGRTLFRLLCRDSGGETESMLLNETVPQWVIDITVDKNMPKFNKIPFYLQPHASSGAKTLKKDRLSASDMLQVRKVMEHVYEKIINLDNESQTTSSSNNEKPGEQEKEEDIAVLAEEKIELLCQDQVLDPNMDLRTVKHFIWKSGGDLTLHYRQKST

With YFP-USP1(del420-520) S313D the other: UAF1-mRFP N/C localization (% of cells), nuclear/cytoplasmic (N/C) class was 12 % of cells.
